This passage reports protein production results from a protein production outcome set (Wang et al. 2014).

This data set is described as follows: label from the status in PepcDB records.
On to “MTPFPAYVPPDFTRPDLAAAPPVRVAEAPGSGVLPAGFHATSNYPEYVHLGGGRWLLASGSRMDAVLVLDGDMLRVVEPRLVRRGDRVVVGRTENGEEGIYVHTTGFDAPAGAGGDKFTFRSRGTRESPFSRSYEELYDILRHDRDHGHIVWVLGPAVAFDRDSRAAMAGLIGGGYCHALLAGNALATHDLEAALFHTGLGQDIYTQALVAGGHYHHLDVINEVLRHGSLERAIAELGIRDGIIRACLEHRVPVVLAGSIRDDGPLPDVITDSRQAQDAMRAHARRATTVIALATQLHAIAVGNMTPSYRVLDDGTVRPVYFYIVDMSEFGADKLANRGSGQARAILTNVQDFMVNLWNNLKG”, for which the protein production result is “failed”. In the case of “AIQVFDVTAVNISATSLTLIWKVSDNESSSNYTYKIHVAGETDSSNLNVSEPRAVIPGLRSSTFYNITVCPVLGDIEGTPGFLQVHTPPVP”, the protein production result is “not failed”.

As for “MNYPAENFTKRFLSSLAQVMLQSNTVTGFLFLVGIGLNSPTMLLGCILAILSSLAVAKLFQYDSNCVTKGFYGFNAALVGIAVFSLLPLSFISLVLVLLGGAFSALLMHVMITKIPSIPALTTPFILSTWTIVLIIDSVGLADPMSGSFTGSISPTLIDSLHGVLRGVGQVMLQDSWLSGAVFCCALLFSSYKTAVWAILGSLIGLLVATTFGFSQEKAMMGLYGFNGCLVAIALVDRYPNKYWLIILAILFSVLFTRVFEMIAIPAFTAPFVMTTWLMIGIVKLKADFD”, the protein production entry was “failed”. In the case of “MADKQPAVNRVVAALLVGGALIAAGYAIRHTVSCFLLSFVTAYLLDPVLVVMERRGVRRPWGILFLYALLAVFSVFFFIVLVPFLSLRWEAFITGLPAYLQKGKQIVFAWKSRAVPPYAVEEWRWLFDTAAGQADKLLAKLGAGVYAAAEGLVFNLFNLVLAPILVFFMLWYKKEFMETAAAWLPASRREVLLALGREVNESIGGYIRGQFMVSVIVAVLSTVALFVIGIDYPIVNGIFAGLASVLPFIGVILATLPPLFFAYVQYESGMVLLQVIGAFSVIYFLEGYLVKPLVFKESMDLNPLVTIIVVMVFGELMGFWGILLAIPIAAAVRAAADHLRRGDFRS” it was “failed”; in that of “MATITRTDRLILVPLTVELEDEAHQIYSDSRIWEHRPQARHTNVRVTRDIIKRTNESWGKKDLGPWGVYLRDRPSEFVGVGGVELIDGKVWDLKYRLRPDLWGNGYATEISNAATLATKRIDDSLPLTARVTTNHPASFRILEKLGLTPVWEGRRVGTEDDPNEPDVRIYSDRPLSDEILEMLKQRP”, “failed”. Consider “MTQRRATRRRFLMGCSAIASVGLAGCTGGDESTATDSTPSPTDDGDAEPTTTTDEPPATDTATATPDQEAVETLVSVGGDRVPENMALGPDGGLYFGITAGEVRRVPAAETGATGLSLEDTEQIATLPGAIGVEAAPDGTVYVAVATQDDQAGVWEIPLDGDAAQLVEMGGFPNDIHYDADQERLLVTESQNGVVYAVTTDGERSTWLDDDRLETESFGANGITRDADGDIFVAVTRAPEETGRLLRVPVESDGAAGEPSMFFEGGAIFGADGITSRDGDIYVAANSQNRVVRVTADGTTDVVATADNGLVFPSDVLFRTGDQQESLFICNFANQSPEDGAILRTSVPR”, for which the protein production result was “failed”. With “MPLTMLSEGKGCRIKEVRAGLELKRRLTEMGFTPSSSVRLIGCERGNLLVNVNGARYALGKGMAMKIMVEPDPCEGVELGLEHHHHHH” the entry was “failed”. In the case of “MGRPRVARLDRERIAEAALELVDRDGDFRMPDLARHLNVQVSSIYHHAKGRAAVVELVRHRVVREIDGSAFERLPWDEAFSEWARSYRAAFSRHPTAIRLLATETVRDPGSLSVYHSAAAGLRGAGFPDDHIMAVITAAENFLLGAALDAAAPEVMIEADSTTTDDALTRALAAAPRGPERAEQAFELGLAALLAGFHHLLQECGAVQR” it was “not failed”. In the case of “MLNPDELVAIDIHTHAEEPCGCHADDGYDDFQARMAEYFGSPNKHPPTVPETAAYYRAKKIAAVIFPVDAERETGFRRYNNDEMIEITRQNSDVLIPFASIDPHKGKIGVREARRLIADYGIKGFKFHPTMQGFYANDRLAYPLYEAIQEGGAIALFHTGQTGVGSGMPGGMGMRLKYSNPMYMDDVAADFPDMKIVLAHPSFPWQEEALSVATHKPNVYIDLSGWSPKYFPPILVRYINSILQDKMLFGSDWPVITPDRWLSDFAKLEIREEVRAKVLKQNARKLLGI” it was “failed”; in that of “MIWILASLIAGIALRAWSVFILPLAYIIGRRNRDLGLLTYFLYGVLLVREVFVRDLISEEAFVSLGLLVPSVLALREIGEEFRVDVRGLVGLGVMSLGFIYKPALVLGVIITGISSIPWIELSILTLLFLVSYVAREHQELVVVGFVLVMSILLAKPIERREMRVKSGRGF”, “failed”; in that of “MDTSRLRPTSPLVRQAAACLDAGEADHADVLLDLHLSRHPEDSAGLILFGLTRVALGRPLEAEQPLRRALALDPIDDPFHARAVCALVDVLKAQGRMAEVSEVLERAGDVAPMNAVFPRMLGAHYRALGQVGAAITAARRAVAVESADGENWRGLAATLLGGAPGEALEALERAKTCGDDGADWWNIRGVALAALGEGEAAREAFKNAILRDGAAPMAWTNLGNLEIRAARSADALERAVEAYGQAIRRAPDSFEAHNNLAQALRDLGRRDEALVHAERAASLRPHDVTVLNTQANILRGLRRVDEAVAILERALACDGRSAETHSNLGLALLAAQDRQRAEEHFRKAAALAPDCVDIIVNLACFLIHINAGKEVLGVLEPALARFPGDVGLLATLGLHYFQENAYEDCATVFETVLAKKPDHVEARASLGVVRWSQGRLVESLALAQSIREDFPEDIRTLFLLGCVHSDLMENASALEVFDLAVEKGGERVPPFHYSNCCFSFHYVEAMEKDDLFARHRRWDALYGAGATELSDVTHHNTRDPERRLRIGYVSPDFRRHSVAYFFLPLVGAHDRAAVEVTCYSLSTLTDQMTDLIREGCDRWRDITTLPAEKAAERVREDEIDILVDLSGHTANNGLSIFALKPAPVQVTYLGYPNTTGLSAIDYRLTDGFADPLGVDEDPASETLWRLPRSFLLFDEVPGLPDPAPPPVLSRGTITFGSFNNMAKVNRGCVAVWKRILDAVPGSRLLLKAKGFRDPATAKVLIERLIDWGVDPEQVSYAPYAKNLMEHVAVYAEVDIALDTFPYNGTTTTFEALHMGVPVIGLRGHRHSGRVGASILGNLGLADRLLGEDVDDMVAKAVALAGDLEGLMRMRAGLRERLRASPLQDGPGFVADLEGAYRAMWRRWCAGPPTFHRQPKNGMWAVEEMEDAIEPVLG”, “failed”. Take “MEMKKSGRSLKMIFTQYFATVSLAFIALLCLIWAIFVISLNTKLIIPANQTEQELHRLEDKIEKADTFQAKRLPKDTAYLLMTKDGKIKESNMSKNLQQQALASYSGNAVSPNDYGYFMVFKRQKEVCIVNYRLEAHYSVAWMNKYLPNVSLLGLILTGLGVLLVFTLVTILFARRLQRQLSPIIAATQKIAKQNLDFTVQSSDIKEFNQVLNSLDTMRAALRDSLMHSWQVEQEKQNQIAALTHDIKTPLTVIKGNTELLKQTELSETQEAFVGYSLKNIGQVETYLQQLSYLAKNSQLQDFHPEKIKVAAFLEELSQNSQALAATKDIKIQFVNNLSDAQLTTYWDKGLLARALMNIISNAVEHSPQGSQLQLVCHLENELFQLTCLDSGQGFSREALDKAKMQFFQDDTSRHDRKHSGLGLTIADNIIRLHGGSLSLSNDAKTASGRVDVVLPLAKM”: the protein production entry was “failed”.

As for “RYSDAHLHYVDFFQESEGMPALIKAMDAAGVEQSMISGIPVAKKWHEDEPKRPRYYAGDDADAYWYSATDTYVAAALQQLPSDQRKRFHPFLSGFNPVDKNAVSHIERMLDLYPGLWQGIGEVFTRHDDLTALTSGDTPRANNEAMTRIYHLAAERDLPVLLHSNITSKRERNPLYLAEIEEPLRNHPHTRFIWAHAGSSMEIHRHQKQMDFLLPVLTRLLEDYPNLYVDLSWSVLQPYLLDEQGAPRKEWLALVEKYPERFMLGSDVVGRFGSLGEQMHGFKPFLDALPESVAHKVARENFLAVLPKAR”, the protein production entry is “failed”. With “SYNYNIKRRIAEKAAELVQDNDTIMIESGSTCALLAEVLCQTKRNIKVITNSCFIANYIRQYSSCQIILLGGYYQPNSEVTVGPLLKEMISLFHVNRVFVGTDGFNKDLGFMGKDMMRSEGVRYMADAAEEVVILTDSSKFSKTSLVHQLSLADVNRVITDQALDKQTQELLSASGLVLDFVS” the entry was “failed”.
